Measurements taken from patent publication US20240059799A1 (Pfizer, published 2024).

Legend:
rat IL-12 = molecular target: T1, rat IL-12 (rat, UniProt P43432 23-335; Q9R103 23-215, limits assumed); test: SPR, antibody captured by anti-human Fc, cytokine injected
T1 chain 1: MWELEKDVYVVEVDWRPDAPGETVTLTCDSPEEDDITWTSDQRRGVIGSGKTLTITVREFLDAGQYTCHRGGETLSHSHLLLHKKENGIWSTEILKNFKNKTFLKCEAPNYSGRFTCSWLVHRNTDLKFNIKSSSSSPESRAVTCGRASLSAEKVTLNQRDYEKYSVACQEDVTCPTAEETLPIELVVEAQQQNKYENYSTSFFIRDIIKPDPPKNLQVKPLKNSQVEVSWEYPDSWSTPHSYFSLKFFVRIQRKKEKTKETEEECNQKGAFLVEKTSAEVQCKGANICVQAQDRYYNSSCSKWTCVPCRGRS
T1 chain 2: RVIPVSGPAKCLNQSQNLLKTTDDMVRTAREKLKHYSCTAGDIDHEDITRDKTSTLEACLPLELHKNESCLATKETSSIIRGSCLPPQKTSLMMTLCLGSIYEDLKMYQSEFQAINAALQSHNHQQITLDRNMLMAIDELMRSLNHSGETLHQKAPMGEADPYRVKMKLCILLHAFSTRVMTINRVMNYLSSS
Procedure: (§1) In order to determine binding to TL1A, kinetic assays were conducted at 37° C. using a collection rate of 10 Hz on a Biacore™ T200 instrument (GE Healthcare). […] For the analysis of the p40 binding arm, kinetic assays were conducted at 37° C. using a collection rate of 10 Hz on a Biacore™ 8 K+ instrument (GE Healthcare).

mouse IL-23 = molecular target: T2, mouse IL-23 (mouse, UniProt P43432 23-335; Q9EQ14 22-196); test: as above
T2 sequence 1: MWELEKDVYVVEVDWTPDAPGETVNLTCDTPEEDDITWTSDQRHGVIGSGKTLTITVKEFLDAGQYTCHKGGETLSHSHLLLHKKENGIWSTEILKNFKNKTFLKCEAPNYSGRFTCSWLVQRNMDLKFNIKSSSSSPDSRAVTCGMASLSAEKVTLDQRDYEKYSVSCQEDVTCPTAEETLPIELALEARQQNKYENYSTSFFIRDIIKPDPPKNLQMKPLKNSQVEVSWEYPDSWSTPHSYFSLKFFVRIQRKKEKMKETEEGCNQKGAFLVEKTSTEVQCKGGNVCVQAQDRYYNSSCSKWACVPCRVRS
T2 sequence 2: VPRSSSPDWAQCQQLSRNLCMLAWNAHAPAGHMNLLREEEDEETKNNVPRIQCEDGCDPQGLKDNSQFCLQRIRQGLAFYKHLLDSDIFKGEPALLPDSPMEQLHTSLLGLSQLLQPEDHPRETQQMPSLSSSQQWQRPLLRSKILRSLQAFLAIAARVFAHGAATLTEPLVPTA
Procedure: as §1

mouse IL-12 = molecular target: T3, mouse IL-12 (mouse, UniProt P43432 23-335; P43431 23-215); test: as above
T3 sequence 1: T2 sequence 1
T3 sequence 2: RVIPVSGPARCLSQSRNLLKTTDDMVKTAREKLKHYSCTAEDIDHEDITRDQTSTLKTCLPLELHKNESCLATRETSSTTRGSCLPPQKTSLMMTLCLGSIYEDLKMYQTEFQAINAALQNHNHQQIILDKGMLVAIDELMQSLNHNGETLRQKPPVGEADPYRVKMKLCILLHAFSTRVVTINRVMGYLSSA
Procedure: as §1

rat IL-23 = molecular target: T4, rat IL-23 (rat, UniProt P43432 23-335; Q91Z84 22-196, limits assumed); test: as above
T4 chain 1: T1 chain 1
T4 chain 2: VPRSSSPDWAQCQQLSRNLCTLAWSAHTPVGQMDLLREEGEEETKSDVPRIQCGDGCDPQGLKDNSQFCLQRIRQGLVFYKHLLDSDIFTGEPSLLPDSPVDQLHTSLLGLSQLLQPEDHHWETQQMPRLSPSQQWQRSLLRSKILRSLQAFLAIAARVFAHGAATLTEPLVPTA
Procedure: as §1

rabbit IL-12 = molecular target: T5, rabbit IL-12 (rabbit); test: as above
T5 chain 1: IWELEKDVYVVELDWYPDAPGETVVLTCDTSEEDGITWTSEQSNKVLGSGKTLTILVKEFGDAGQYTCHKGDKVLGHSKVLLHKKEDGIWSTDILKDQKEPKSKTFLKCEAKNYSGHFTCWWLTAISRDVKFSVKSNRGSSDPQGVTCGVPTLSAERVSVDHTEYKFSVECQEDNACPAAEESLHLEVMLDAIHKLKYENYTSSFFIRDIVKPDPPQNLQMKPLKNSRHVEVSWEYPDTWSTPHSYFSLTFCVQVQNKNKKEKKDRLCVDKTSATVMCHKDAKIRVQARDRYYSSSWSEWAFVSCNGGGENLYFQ
T5 chain 2: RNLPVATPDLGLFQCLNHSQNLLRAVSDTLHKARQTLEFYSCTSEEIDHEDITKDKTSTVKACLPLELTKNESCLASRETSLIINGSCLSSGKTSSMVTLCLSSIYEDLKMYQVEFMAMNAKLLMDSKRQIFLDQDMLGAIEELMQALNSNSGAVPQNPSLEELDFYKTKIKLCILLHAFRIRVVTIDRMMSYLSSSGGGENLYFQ
Procedure: as §1

rabbit IL-23 [1] = molecular target: T6, rabbit IL-23 (rabbit); test: as above
T6 chain 1: T5 chain 1
T6 chain 2: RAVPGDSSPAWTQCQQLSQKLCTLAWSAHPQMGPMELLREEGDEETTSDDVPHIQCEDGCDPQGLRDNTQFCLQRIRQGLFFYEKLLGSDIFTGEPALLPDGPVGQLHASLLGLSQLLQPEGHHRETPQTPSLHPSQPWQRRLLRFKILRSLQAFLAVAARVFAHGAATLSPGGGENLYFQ
Procedure: as §1

rabbit IL-23 [2] = molecular target: T7, rabbit IL-23 (rabbit); test: SPR, Biacore 8K+, 37 C; antibody captured by anti-human Fc, cytokine injected
T7 chain 1: T5 chain 1
T7 chain 2: T6 chain 2
Procedure: as §1

Measured: binding result

B1: p40TL1A-0033 (bispecific antibody, human IgG1, kappa)
chain 1: not shown
chain 2: QVQLVQSGAEVKKPGASVKVSCKASGYDYTYYGISWVRQAPGQGLEWMGWISTYNTGTHYAPSLQGRVTMTTDTSTSTAYMELRSLRSDDTAVYYCARESYYGSGAFRGGMDVWGQGTTVTVSSASTKGPSVFPLAPSSKSTSGGTAALGCLVKDYFPEPVTVSWNSGALTSGVHTFPAVLQSSGLYSLSSVVTVPSSSLGTQTYICNVNHKPSNTKVDKKVEPKSC
heavy: EVQLVQSGAEVKKPGESLKISCKGSGYSFTTYWLGWVRQMPGKGLDWIGIMSPVDSDIRYSPSFQGQVTMSVDKSITTAYLQWNSLKASDTAMYYCARRRPGQGYFDFWGQGTLVTVSSASTKGPSVFPLAPSSKSTSGGTAALGCLVKDYFPEPVTVSWNSGALTSGVHTFPAVLQSSGLYSLSSVVTVPSSSLGTQTYICNVNHKPSNTKVDKKVEPKSCDKTHTCPPCPAPEAAGAPSVFLFPPKPKDTLMISRTPEVTCVVVDVSHEDPEVKFNWYVDGVEVHNAKTKPREEQYNSTYRVVSVLTVLHQDWLNGKEYKCKVSNKALPAPIEKTISKAKGQPREPQVCTLPPSREEMTKNQVSLWCLVKGFYPSDIAVEWESNGQPENNYKTTPPVLDSDGSFFLYSKLTVDKSRWQQGNVFSCSVLHEALHSHYTQKSLSLSPGK
light: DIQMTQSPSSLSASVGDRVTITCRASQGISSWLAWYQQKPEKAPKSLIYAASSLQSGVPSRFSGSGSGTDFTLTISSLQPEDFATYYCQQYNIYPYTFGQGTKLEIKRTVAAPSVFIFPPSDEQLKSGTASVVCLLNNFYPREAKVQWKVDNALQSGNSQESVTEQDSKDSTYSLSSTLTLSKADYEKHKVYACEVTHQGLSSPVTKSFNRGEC
notes: KiH modified-Fd bispecific: TL1A VL-CL-Fc (hole), TL1A mFd, p40 HC (knob), p40 LC; LS
not listed: rabbit IL-23 [2]
no binding (tested: 200 nM): all other assays above

B2: p40TL1A-0033 bispecific antibody (bispecific antibody, human IgG1, kappa)
heavy: B1 heavy
light: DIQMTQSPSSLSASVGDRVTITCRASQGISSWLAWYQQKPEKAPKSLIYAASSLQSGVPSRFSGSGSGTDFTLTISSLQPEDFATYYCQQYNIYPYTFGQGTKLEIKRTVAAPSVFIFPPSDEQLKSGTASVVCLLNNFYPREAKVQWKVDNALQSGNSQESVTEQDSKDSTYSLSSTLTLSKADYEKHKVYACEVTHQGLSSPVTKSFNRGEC
chain 1: not shown
chain 2: B1 chain 2
notes: Single cell KiH, modified Fd format; IgG1 effector-function-minimized Fc with LS mutations
no binding (tested: 200 nM): rabbit IL-23 [2]
